Data: PMC5856776 (2018)

B1: full-length recombinant Cnm (rCnm-FL) (domain or fragment)
chain: ASDVSNNVSSLTVSPTQINDGGKTTVRFEFDEHAQNIKAGDTITVNWQNSGTVRGTGYTKTIKLEVQGKYVGDLVVTQDKAVVTFNDSITGLQNITGWGEFEIEGRNFTDTTTGNTGSFQVTSGGKTSEVTVVKSASGTTGVFYYKTGDMQTDDTNHVRWFLNINNENAYVDSDIRIEDDIQSGQTLDIDSFDITVNGSESYRGQEGINQLAQRYGATISADSASGHISVYIPQGYASLNSFSIMYLTKVDNPDQKTFENNSKAWYKENGKDAVDGKEFNHSVANVNAAGGVDGRTTTTTEKPTTTTEAPTTTEAPTTTEAPTTTETPTTTEAPTTTEAPTTTEAPTTTEAPTTTETPTTTEAPTTTEAPTTTEAPTTTEAPTTTEAPTTTEAPTTTEAPTTTEASSETTKAEEKTTEVKEPEKTTTTAPAGKT
B2: rCnm N2 (domain or fragment)
chain: ASGTTGVFYYKTGDMQTDDTNHVRWFLNINNENAYVDSDIRIEDDIQSGQTLDIDSFDITVNGSESYRGQEGINQLAQRYGATISADSASGHISVYIPQGYASLNSFSIMYLTKVDNPDQKTFENNSKAWYKENGKDAVDGKEFNHSVANVNAAGGVDGR
B3: rCnm N1+2 (domain or fragment)
chain: SDVSNNVSSLTVSPTQINDGGKTTVRFEFDEHAQNIKAGDTITVNWQNSGTVRGTGYTKTIKLEVQGKYVGDLVVTQDKAVVTFNDSITGLQNITGWGEFEIEGRNFTDTTTGNTGSFQVTSGGKTSEVTVVKSASGTTGVFYYKTGDMQTDDTNHVRWFLNINNENAYVDSDIRIEDDIQSGQTLDIDSFDITVNGSESYRGQEGINQLAQRYGATISADSASGHISVYIPQGYASLNSFSIMYLTKVDNPDQKTFENNSKAWYKENGKDAVDGKEFNHSVANVNAAGGVDGR

target: T1, type I collagen (BD-Biosciences) (UniProt P02454 152-1207; P02466 86-1125); experiment: SPR
T1 sequence (P02454 152-1207, chain 1 of 2): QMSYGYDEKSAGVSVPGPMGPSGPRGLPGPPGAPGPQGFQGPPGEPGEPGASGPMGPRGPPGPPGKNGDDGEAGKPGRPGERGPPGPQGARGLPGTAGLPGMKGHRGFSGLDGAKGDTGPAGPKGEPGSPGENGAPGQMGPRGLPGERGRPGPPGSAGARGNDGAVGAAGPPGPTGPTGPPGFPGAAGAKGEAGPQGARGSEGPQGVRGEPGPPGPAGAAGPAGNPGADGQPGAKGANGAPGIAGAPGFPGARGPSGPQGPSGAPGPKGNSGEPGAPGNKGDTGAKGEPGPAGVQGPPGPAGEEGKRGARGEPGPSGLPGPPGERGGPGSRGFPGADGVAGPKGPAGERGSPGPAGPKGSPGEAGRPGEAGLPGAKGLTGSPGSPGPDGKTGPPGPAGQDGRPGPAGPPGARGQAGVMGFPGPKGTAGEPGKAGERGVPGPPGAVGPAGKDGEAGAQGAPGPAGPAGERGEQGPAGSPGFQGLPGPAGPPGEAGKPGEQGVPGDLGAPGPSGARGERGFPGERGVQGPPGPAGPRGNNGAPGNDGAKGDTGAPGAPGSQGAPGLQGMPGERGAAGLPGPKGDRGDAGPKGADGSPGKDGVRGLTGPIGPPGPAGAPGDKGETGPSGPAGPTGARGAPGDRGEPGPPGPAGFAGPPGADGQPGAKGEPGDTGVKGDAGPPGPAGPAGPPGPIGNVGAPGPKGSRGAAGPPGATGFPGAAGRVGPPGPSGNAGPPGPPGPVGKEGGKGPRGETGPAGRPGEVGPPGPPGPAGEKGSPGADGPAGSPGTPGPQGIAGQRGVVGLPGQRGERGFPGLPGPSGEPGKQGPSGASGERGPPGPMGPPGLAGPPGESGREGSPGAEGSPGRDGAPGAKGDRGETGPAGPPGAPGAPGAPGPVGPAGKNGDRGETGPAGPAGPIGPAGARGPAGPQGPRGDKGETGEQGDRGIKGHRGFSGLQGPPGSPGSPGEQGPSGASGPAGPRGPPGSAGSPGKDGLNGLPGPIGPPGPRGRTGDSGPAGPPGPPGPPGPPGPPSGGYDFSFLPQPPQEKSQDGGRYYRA
T1 sequence (P02466 86-1125, chain 2 of 2): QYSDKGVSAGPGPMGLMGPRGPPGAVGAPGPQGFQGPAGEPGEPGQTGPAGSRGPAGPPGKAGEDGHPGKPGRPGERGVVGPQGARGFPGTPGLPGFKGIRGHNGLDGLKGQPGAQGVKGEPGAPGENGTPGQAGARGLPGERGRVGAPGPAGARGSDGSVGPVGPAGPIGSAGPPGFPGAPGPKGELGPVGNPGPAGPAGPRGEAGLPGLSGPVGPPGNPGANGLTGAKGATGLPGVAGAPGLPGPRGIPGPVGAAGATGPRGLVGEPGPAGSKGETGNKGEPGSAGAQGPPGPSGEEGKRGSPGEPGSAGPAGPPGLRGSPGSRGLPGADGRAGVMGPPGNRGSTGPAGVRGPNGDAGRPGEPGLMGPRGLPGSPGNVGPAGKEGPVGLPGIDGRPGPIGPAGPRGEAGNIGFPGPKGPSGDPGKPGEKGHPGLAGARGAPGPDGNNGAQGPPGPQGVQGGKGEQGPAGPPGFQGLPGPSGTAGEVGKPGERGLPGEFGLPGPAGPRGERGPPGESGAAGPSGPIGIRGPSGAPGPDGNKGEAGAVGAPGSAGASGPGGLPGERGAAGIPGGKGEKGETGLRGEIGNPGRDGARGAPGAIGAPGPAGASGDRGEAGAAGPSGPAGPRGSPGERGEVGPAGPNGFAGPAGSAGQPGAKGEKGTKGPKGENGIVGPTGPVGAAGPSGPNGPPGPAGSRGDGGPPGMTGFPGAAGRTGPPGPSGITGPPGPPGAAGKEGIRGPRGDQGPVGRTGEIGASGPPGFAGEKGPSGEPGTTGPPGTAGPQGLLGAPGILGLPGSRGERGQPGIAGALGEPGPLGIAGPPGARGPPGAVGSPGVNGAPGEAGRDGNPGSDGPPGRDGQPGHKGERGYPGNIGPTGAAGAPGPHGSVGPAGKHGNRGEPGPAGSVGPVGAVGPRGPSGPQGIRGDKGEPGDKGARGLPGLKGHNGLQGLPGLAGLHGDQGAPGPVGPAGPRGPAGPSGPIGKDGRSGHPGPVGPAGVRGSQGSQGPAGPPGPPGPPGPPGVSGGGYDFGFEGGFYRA

Binder | koff
B1 | 0.00198 s⁻¹
B2 | 0.000335 s⁻¹
B3 | 0.0244 s⁻¹

target: T1, type I collagen (BD-Biosciences); experiment: SPR; remark: another data set of the same source

Binder | Kd
B1 | 289 nM
B2 | 4530 nM
B3 | 817 nM

target: T1, type I collagen (BD-Biosciences); experiment: SPR; remark: another data set of the same source

Binder | Ka
B1 | 3.46e+06 M⁻¹
B2 | 221000 M⁻¹
B3 | 1.22e+06 M⁻¹
